Measurements: a protein production outcome set (Wang et al. 2014)

Test: label from the status in PepcDB records
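Further: failed if final PepcDB status was selected cloned or expressed and not failed if soluble or beyond.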

MNSILSSFKKNQKGIILILIASICTTIGQTLWKMSAMHNMLYILIGFFFYGIGAVGMIIALKYGSFSVIHPMMSMGYVFTIIVSYILLKESVGLGKIIGVILIMFGVAFIGLGDE
protein production: failed

MASLQLCDGYLLFKPSVSPRFLSQRISHRLIPKASSSPPPSPSPSSSSSSLSFSRRELLYQSAAVSLSLSSIVGPARADEQLSEWERVFLPIDPGVVLLDIAFVPDEPSRGFLLGTRQTLLETKDGGSTWNPRSIPSAEEEDFNYRFNSISFKGKEGWIIGKPAILLYTADAGENWDRIPLSSQLPGDMVFIKATEDKSAEMVTDEGAIYVTSNRGYNWKAAIQETVSATLNRTVSSGISGASYYTGTFSAVNRSPDGRYVAVSSRGNFFLTWEPGQPYWQPHNRAVARRIQNMGWRADGGLWLLVRGGGLYLSKGTGITEEFEEVPVQSRGFGILDVGYRSEEEAWAAGGSGILLRTRNGGKSWNRDKAADNIAANLYAVKFVDDKKGFVLGNDGVLLRYVG
protein production: failed

MINKKTTSENRRILQIAVPSIISNITVPLLGLIDVTIVGHLGSPAYIGAIAVGGMLFNIIYWIFGFLRMGTSGMTSQAYGQHDLNEINRLLIRSVGVGLFIALCLLILQYPILNAAFTLIQTTEEVKQLATTYFYICIWGAPAMLGLYGFAGWFIGMQNSRFPMYIAITQNIVNIIASLSFVYLLDMKVAGVAAGTLIAQYAGFFMAILLYMRYYSTLRKRIVWKDIIQKQAMYRFFRVNRDIFFRTLCLVIVTMFFTSAGAAQGEVVLAVNTLLMQLFTLFSYIMDGFAYAGEALAGRYIGARNQTALRNTVNHLFYWGIGLSAAFTLLYAIGGKEFLGLLTNDVSVISSSDTYFYWALAIPLTGFSAFLWDGVFIGATATRQMLYSMLVASVSFFMIYYAFHNLLGNHALWLAFITYLSLRGIVQTFIGREIVKKAI
protein production: failed

MRKDEYRATLLEPNVWHIADYRGDSMYLVVGEEKALLVDTGMGEGDLKGFVRSITEKPVEVVLTHAHWDHIMQANQFEKVYLNHRDFQIIELFKINVNYENFLNVKEGDRFDLGGRTLEVIEVPGHTPGSIVLLDRENRLLFSGDSVGAGHTWMHLPGCLPLREYLKSLKKLKETDSFEKIYHGHLTGTQLKPFGPDYLDDLIKAVEGVIDGSLRGEP
protein production: failed

MSRTEGSHEAEQDLTMIVGTYTSGDSKGLYSFRFNEENGTATALSEAEVENPSYLVPSADGKFIYAVSEFSNEQAAANAFAFNKEEGTFRLLNTQKTGGEDPCYIITNGSNVVTANYSGGSISVFPIDKDGSLLPASEVVKFKGSGADKERQEKPHLHCVRITPDGKYLFADDLGTDQIHKFIVNPNAKADNEDVFLKEGSPASYKVEAGSGPRHLTFAPNGSYAYLINELSGTVIAFEYNDGELKEIQTIAADTVGAKGSGDIHISPDGKFLYASNRLKADGLAIFSIHPENGMLTKVGYQLTGIHPRNFIITPNGKYLLVACRDSNVIQVYERDTDTGLLTDIRKDIKVDKPVCIKFVPLEHHHHHH
protein production: not failed

MATFFFKTNYYQEIMLKRIFFLMIFFVSQTMASVFTHEEVQILKKHFLNNFQTNGAIVASPSQYNPNYYYDWIRDSAIAMGLVETWYEASQSARYKKLLLEYVSWTEKIQHQADPIAGQDILGEPKFYINGNPFDGEWGRPQNDGPALRASVLIRFAQQLLDHNEIDYVKSHLYNNTMDPQSMGTIKMDLEYIAHHWQDANFDLWEEVYGHHFFTAMAQQKALTDGAILAHQLHDRQAAVFYEMQANLINSRLKQHLDHQNKIIQATLLPHPGPQKTLELDSSVMLGILINPQKEGVFAPHHTFVQNTAKALHEQFNLMFPINKNRSGAILFGRYPGDTYDGYQTNSIGNPWFILTATMAEYYFTMAHNLSPNSINKLHIQNYLKKGDNYLRLIKQYGPDLNLSEQINLNTGVQQGATSLTWSYVSVLRAIHLREQLENRIKTTGWNTY
protein production: failed

MRSATDLLDELNAVDESARIEAKRASDMGKSVMETVIAFANEPGLDGGYLLLGVDWAINDKGDTVYRPVGLPDPDKVQRDLASQCASMLNVALRPEMQLEQVGGKTLLVVYVPEADVTHKPIYKKATGLPGGAYRRIGSSDQRCVDEDLWVLRGLEHHHHHH
protein production: not failed

MVAIDYVVIGAGYAGLMCAEALMDKGFKTLVFDMRESGGEIVVFSKLEEFRSKYEKYIEKIEEIRKDIPVDIGTVIKSKPVIINSGNGLKRYEARRVILATGATDTAPVKLNVLSKKIEGIYTLENALREISENNKIGEKVLIAAKDDVIVKLAESQLSDLGYDVEISELTNDIQVIGKERVEGVEISGVRYSCDTLVVYGGRNPFNPLKLRGTPVGNVVTCTYDYSKVEENVKNFLAKILEHHHHHH
protein production: failed

MEQQEEKRKIKAYQRKSKRSKSGSSSIPLDLVSEILLRLPEKSVARFRCVSKPWSSITTEPYFINLLTTRSPRLLLCFKANEKFFVSSIPQHRQTFETWNKSHSYSQLIDRYHMEFSEEMNYFPPTESVNGLICFQESARLIVWNPSTRQLLILPKPNGNSNDLTIFLGYDPVEGKHKVMCMEFSATYDTCRVLTLGSAQKLWRTVKTHNKHRSDYYDSGRCINGVVYHIAYVKDMCVWVLMSFDVRSEIFDMIELPSSDVHKDVLIDYNGRLACVGREIIEKNGIRLWILEKHNKWSSKDFLAPLVHIDKSLSTNKFLLKGFTHAGEIIYVESMFHKSAKIFFYDPVRNTSRRFELKGFTDDEFVLSNEHGYTLHVFPNHVESQISFT
protein production: failed

MRLLACWTDVHHRHAPMTAHDLPRQAFLRGAVAILPLSLAVAPWGLLAGSMAIEANLTPAEGQGLSAIVFAGAAQLVAIGMLKGGAGFFSIIFTTLLLTSQHLLYGMSLRPVLSPLPGRWRIGLGFLLTDEFFALASQHDRRNFNRWYALGVGLTFYIAWNLFTLAGILLGRSIPGLEHLGLDFSIAATFIALVAPLVRNVPTLVCVATSLFCSVLFSHWQWSSALVLAGLAGMAAGFICNKLYREAPWSGQ
protein production: failed

MIQSSLYRALNKGFDYQILACKDFKESELAKEVISYFKPNTKAILFPEFRAKKNDDLRSFFEEFLQLLGGLREFYQALENKQETIIIAPISALLHPLPKKELLESFKITLLEKYNLKDLKDKLFYYGYEILDLVEVEGEASFRGDIVDIYAPNSKAYRLSFFDTECESIKEFDPITQMSLKEDLLEIEIPPTLFSLDESSYKDLKTKVEQSPLNSFSKDLTSFGLWFLGEKAQDLLIVYKSIISPRALEEIQELASLNELDCERFKFLKVLENAQGYEDLEIHAHALEGFIALHSNHKITLLAPNKTILDNAISALDAGNMECVIAPFVLNFKTPDGIFISLNSFERKKKRQKSKLALNELNPGEWVVHDDYGVGVFSQLVQHSVLGSKRDFLEIAYLGEDKLLLPVENLHLIARYVAQSDSVPAKDRLGKGSFLKLKAKVRTKLLEIASKIIELAAERNLILGKKMDVHLAELEVFKSHAGFEYTSDQEKAIAEISKDLSSHRVMDRLLSGDVGFGKTEVAMHAIFCAFLNGFQSALVVPTTLLAHQHFETLRARFENFGVKVARLDRYASEKNKLLKAVELGQVDALIGTHAILGAKFKNLGLVVVDEEHKFGVKQKEALKELSKSVHFLSMSATPIPRTLNMALSQIKGISSLKTPPTDRKPSRTFLKEKNDELLKEIIYRELRRNGQIFYIHNHIASILKVKTKLEDLIPKLKIAILHSQINANESEEIMLEFAKGNYQVLLCTSIVESGIHLPNANTIIIDNAQNFGLADLHQLRGRVGRGKKEGFCYFLIEDQKSLNEQALKRLLALEKNSYLGSGESVAYHDLEIRGGGNLLGQDQSGHIKNIGYALYTRMLEDAIYELSGGKKRLEKSVEIQLGVSAFLNPELIASDSLRLDLYRRLSLCENTDEVGQIHEEIEDRFGKIDDLSAQFLQIITLKILANQLGIIKLSNFNQNITITYSDEKKESLKAPSKDDNDILETLLKHLRAQISLKRR
protein production: failed

MTVRTRVTDLLEIEHPILMGGMAWAGTPTLAAAVSEAGGLGIIGSGAMKPDDLRKAISELRQKTDKPFGVNIILVSPWADDLVKVCIEEKVPVVTFGAGNPTKYIRELKENGTKVIPVVASDSLARMVERAGADAVIAEGMESGGHIGEVTTFVLVNKVSRSVNIPVIAAGGIADGRGMAAAFALGAEAVQMGTRFVASVESDVHPVYKEKIVKASIRDTVVTGAKLGHPARVLRTPFARKIQEMEFENPMQAEEMLVGSLRRAVVEGDLERGSFMVGQSAGLIDEIKPVKQIIEDILKEFKETVEKLRGYIEE
protein production: not failed

MKISIITAVYNDPRVERCLDSVASQQGNFEVEHIVVDSESTDDTVDVIEQYENHIDCLISEPDDGMYDAINKGIEAATGDVIGLLNADDYYQDQRVLHDVASQLAETGADACYGDLVYVDADDDVVRYWKSDEYSRYKLYYGWMPPHPTFFVRHEIYERHGGFDLSYEISADYELMIRLLLNTDISVTYLDRVLVRMELGGMSNQSIENMLTVIEDMYRGWKKHNRLGRFVAPFLHPVEKVPQFIRSPPGEKEGTLEHHHHHH
protein production: failed

GEKTFTQRSRLFVGNLPPDITEEEMRKLFEKYGKAGEVFIHKDKGFGFIRLETRTLAEIAKVELDNMPLRGKQLRVRFACHSASLT
protein production: not failed

MPQAPTLQSFIAGRWFGQHPAQSLRSAIDGHEVARTHEEAPDFAEALAFGRHQGGKALLALDFQQRAQRLKALALYLSGRKEQLYALSHHSGATRADSWIDIEGGNSTLFSYAGLGARELPSGNLLHEGPAQSLSKLGSFAGSHILVPRGGVAVHINAFNFPIWGMLEKFAPCFLAGMPCIVKPASATSYLTEAAMRLMHESGLLPEGSLQLVIGATGDLLDRLQGQDLVTFTGSASTAGRLRANPNLIRHSVPFNAEADSLNCAILAPDVSPDDEEFELFIKEVAREMTVKAGQKCTAIRRAIIPAKQLDAVATRLRERLSKVVVGDPAVEGVRMGALASHEQQRDVAERLQSLLHSSDLLFGARDGFEPRGTNVSQGAFFAPTLLLARDPMAEGGAHDIEAFGPVSTLMAYDDLDQALELASRGKGSLVASLVTKSPAIAAQVIPRAAAWHGRLLVLDRECAGESTGHGSPLPQLKHGGPGRAGGGEELGGLRAVKHYLQRAAIQGSPSMLAAVTGEYVRGAKVLETEVHPFRRYFQDLRIGESLLTHRRTVTEADLVNFGCLSGDHFYMHFDEIAARESQFGKRIAHGYFVLSAAAGLFVSPGPGPVLANYGLDTLRFITPVGIGDTLQARLTCKRKIDQGKLSPQGTPQGVVAWDVEVSNQLGEVVASYDILTLVAKRTE
protein production: failed

TFVCASAGNHAQGFAFVCRHFGVPGVVFMPVTTPQQKIDKTRMFGAEFITIRLVGDIFDQCYKAAREHVEAIGGVMVPPFDHDDIIEGQATVAAEIAEQLPAGPVADLVVLPVGGGGLAAGVTGYLGDSLSADRFLFCEPEGAPSFRRSLELGGVVTLDQVDNFVDGAAVARIGDLNFAALRRFSPEQVMLLPENAICLTITEMLNVEGVVLEPAGALAITALEALGRDSLEGKIVVAVVSGGNF
protein production: failed

MSRTMAEVNRLLKKTAGLINKDTESPFQGEFRVGVDLGTADIQTIVLDADGNPLAGFMDWANVVRDGVVVDFFGASQIVREQVRRASAKLGIQIEQVTTSFPPGTDSRISTNVIEAAGLEVAGVIDEPSSVAQLLQLDHAAVVDIGGGTTGTAIIEEGRVVRSMDDATGGRHITLTLAGHFGLPYEEAEEMKRTSKDLALCRLAAPVIAKMADIVHGHIAGHKVPAIYLTGGSCALPGFLEVFAAEFPGIEIVMPSHPLYLTPLAIATYSDVLQTREQRVGLEHHHHHH
protein production: failed

MAFASLFTLPDYIAAVLDDVALMTKAAAKKTAGVAGDDLAPNANRVTGVSAERELPIVWPVAKGSFANKPVLVSAALLLSAFLPQLITPLLTAGGIYLCFEGVEKLLHKFLHRHDAHDDGGETAVNEQAKIKGAIRTDFILSAEIIIIALCVVEQYSLMTRSLVMAAIGIGMTVLVYGIVAVIVKLDDLGMLLMRRPQPRPFARFPARATLERWLDRVFRQPRCRAAFRFDCLRPALSLMNRFGRH
protein production: failed
